For test [1], the target named is T1, Homo sapiens factor Bb protein (human, UniProt P00751 260-764). The test is described as follows: cell-based or functional assay.
For test [2], the target named is T1, Homo sapiens factor Bb protein. The test is described as follows: competition ELISA on coated factor Bb; competitor murine parental antibody. As to the method: Factor Bb was diluted in 1× PBS to 1.0 μg/ml and 100 μl/well was coated overnight at 4° C. on a 96-well ELISA plate. The following day the plates were blocked for two hours at room temperature with 1% casein/PBS before washing 2× with PBS pH 7.4. In a 96-well dilution plate a fixed concentration of murine parental antibody (0.5 μg/ml, final concentration) was added in equal volume to a four-fold titration series of test antibody (starting from 45 μg/ml to 0.01 μg/ml, final concentration) diluted in blocking buffer. After washing the plate 3× with PBS-T, 100 μl of chimeric/test antibody mix was added to the ELISA plate. After incubating at room temperature for one hour, the plate was washed 3× with PBS-T and 100 μl of anti-mouse IgG Fc-Specific HRP (Sigma, Dorset, UK) diluted 1:1000 in PBS-T was applied for one hour at room temperature to detect bound mouse antibody. For color development, the plate was washed 3× with PBS-T following which 100 μl of TMB substrate was added and incubated for approximately five minutes at room temperature. The reaction was stopped with 50 μl of 3.0 M hydrochloric acid and absorbance was read immediately using a DYNEX ® plate reader at 450 nm.
IC50 values were calculated for each variant and relative IC50 values were calculated by dividing the IC50 of the humanized variant by that of the chimeric antibody assayed on the same plate (Table 11).

For test [3] the target is unchanged. The test is described as follows: SPR multi-cycle kinetics; ratio against VH0/Vκ0 on the same chip. As for the experimental part:
Antibodies were diluted in running buffer to a final concentration of 0.5 μg/ml. At the start of each cycle, antibodies were loaded onto Fc2, Fc3 and Fc4 of the Protein A chip (GE Healthcare, Little Chalfont, UK). IgGs were captured at a flow rate of 10 μl/min to give an immobilisation level (RL) of ˜63 RU, the theoretical value to obtain an Rmax of ˜50 RU. The surface was then allowed to stabilize. Kinetic data was obtained with factor Bb as analyte and using a flow rate of 30 μl/min to minimize any potential mass transfer effects. Multiple repeats of a blank and a repeat of a single concentration of the analyte were programmed into the kinetic run in order to check the stability of both the surface and analyte over the kinetic cycles. For kinetic analysis, a two-fold dilution range was selected from 12. 5 nM to 0. 391 nM factor Bb. The association phase of factor Bb was monitored for 360 seconds and the dissociation phase was monitored for 600 seconds. Regeneration of the Protein A surface was conducted using two injections of 10 mM glycine-HCL pH 1. 5. The signal from the reference channel Fc1 was subtracted from that of Fc2, Fc3 and Fc4 to correct for differences in non-specific binding to a reference surface, and a global Rmax parameter was used in the 1-to-1 binding model.
The sensorgrams and fitted data for the binding of chimeric antibodies and humanized variants to factor Bb are shown in FIGS. 4A-4C. The relative KD was calculated by dividing the KD of the humanized variants by that of the chimeric antibody on the same chip. The kinetic parameters measured for the interaction of factor Bb with chimeric antibodies and humanized variants are shown in Table 10.

For test [4] the target is unchanged. The test is described as follows: SPR single cycle kinetics, IgG on Protein A chip, factor Bb analyte. An outline of the steps: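 Humanized IgGs from transfected-cell supernatants (1 μg/ml) were captured on a Protein A chip (~63 RU) and factor Bb was injected as a four-point two-fold series from 0.78 to 6.25 nM without regeneration. Each injection had 200 s association, followed by one 200 s dissociation. Run at 25° C in HBS-P+ (pH 7.4), with the reference-channel signal subtracted.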

Test [5] shares this target. The test is described as above. As for the experimental part: In order to assess the binding of all humanized variants, single cycle kinetic analysis was performed on supernatants from transfected cell cultures. […] All single cycle kinetic experiments were run at 25° C. with HBS-P+running buffer (pH 7. 4) (GE Healthcare, Little Chalfont, UK).
Antibodies were diluted in running buffer to a final concentration of 1 μg/ml, based on concentrations assessed by ELISA titer. At the start of each cycle, antibodies were loaded onto Fc2, Fc3 and Fc4 of the Protein A chip (GE Healthcare, Little Chalfont, UK). IgGs were captured at a flow rate of 10 μl/min to give an immobilization level (RL) of ˜63 RU, the theoretical value to obtain an Rmax of ˜50 RU. The surface was then allowed to stabilize. Single cycle kinetic data was obtained with factor Bb (CompTech, Tyler, USA) as the analyte at a flow rate of 30 μl/min to minimize any potential mass transport limitations. Multiple repeats with the reference chimeric antibody were performed to check the stability of the surface and analyte over the kinetic cycles. The signal from the reference channel Fc1 (no antibody) was subtracted from that of Fc2, Fc3 and Fc4 to correct for differences in non-specific binding to a reference surface. A four point, two-fold dilution range from 0. 78 nM to 6. 25 nM factor Bb without regeneration between each concentration was used. The association phase for the four injections of increasing concentrations of factor Bb was monitored for 200 seconds each time and a single dissociation phase was measured for 200 seconds following the last injection of factor Bb. Regeneration of the Protein A surface was conducted using two injections of 10 mM glycine-HCL pH 1. 5.
The sensorgrams and fitted data for the single cycle kinetics are shown in FIGS. 1A-1D and the kinetic parameters measured for the interaction of factor Bb with each antibody are shown in Table 7. The relative KD was calculated by dividing the KD of the VH0/Vκ0 reference antibody by that of the humanized variant assayed in the same experiment.
This is another data set of the same source.

Test [6] shares this target. The test is described as follows: BLI Octet, biotinylated antibody on SA biosensors. As to the method:
Briefly, biotinylated antibodies were loaded onto SA Biosensors equilibrated in PBS, 0.1% BSA, 0.02% Tween-20 (assay buffer). After a 60 second baseline in assay buffer, antibodies were loaded onto the probes for 180 seconds, followed by another 60 second baseline. Association to human (Comptech) or cynomolgus monkey factor Bb (purified in-house) was measured for 300 seconds, followed by a 300 second dissociation. Kinetic parameters were calculated by the Octet Analysis software using a 1:1 binding model.
To determine whether the modification of the Fc portion of the antibodies affected affinity and species cross-reactivity, VH4/VK6-IgG4v2 and VH6/VK7-IgG4v2 were tested alongside their parental antibodies, VH4/VK6 and VH6/VK7, respectively, for their ability to bind human and cynomolgus monkey factor Bb by BLI. VH4/VK6-IgG4v2 and VH6/VK7-IgG4v2 contain mutations in the Fc region that increase the affinity for an Fc receptor.
In general terms: Biolayer interferometry detects binding as a change in optical thickness at a sensor tip.

Like-named read-outs stand apart in the source and are kept apart here.

T1 sequence (P00751 260-764 limits assumed): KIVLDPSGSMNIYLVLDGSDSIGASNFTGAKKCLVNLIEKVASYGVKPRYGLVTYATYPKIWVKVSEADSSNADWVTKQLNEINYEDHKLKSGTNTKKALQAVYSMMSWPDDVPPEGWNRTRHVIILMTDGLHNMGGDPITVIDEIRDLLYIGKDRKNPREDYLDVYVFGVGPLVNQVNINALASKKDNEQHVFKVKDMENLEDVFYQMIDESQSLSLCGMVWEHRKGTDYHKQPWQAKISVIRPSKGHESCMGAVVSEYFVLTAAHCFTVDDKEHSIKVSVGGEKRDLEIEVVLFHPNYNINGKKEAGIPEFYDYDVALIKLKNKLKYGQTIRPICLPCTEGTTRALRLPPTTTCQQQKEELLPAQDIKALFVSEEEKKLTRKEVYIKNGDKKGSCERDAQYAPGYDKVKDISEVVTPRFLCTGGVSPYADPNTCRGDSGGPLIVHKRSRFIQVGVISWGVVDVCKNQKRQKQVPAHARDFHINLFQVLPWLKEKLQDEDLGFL

B1: VH0/Vκ0 (Chimeric) (antibody, V domains shown)
VH: EVQLVESGGALVKPGGSLKLSCAASGFTFSNYAMSWVRQTPEKRLEWVATISNRGSYTYYPDSVKGRFTISRDNAKNTLYLQMSSLRSEDTALYYCARERPMDYWGQGTSVTVSS
VL: DIVMTQSHKFMSTSVGDRVSITCKASQDVGTAVAWYQQKPGQSPKLLIYWASTRHTGVPDRFTGSGSGTDFTLTITNVQSEDLAVYFCHQHSSNPLTFGAGTKLELK
notes: also called chimeric antibody
With B1, the “AP Assay IC50” value in test [1] turned out to be 24 nM. In addition, the IC50 in test [2] came to 1.23 nM. In addition, in test [3], the “Relative KD” value came to 1. In test [4], this molecule came in with a Kd of 1.77 nM, a koff of 0.000949 s⁻¹ and a kon of 535000 M⁻¹ s⁻¹. For the same molecule, in test [5], the Kd is 1.76 nM, the koff turned out to be 0.00103 s⁻¹ and the kon was 585000 M⁻¹ s⁻¹.

B2: VH6/Vκ7-IgG4v2 (antibody)
heavy: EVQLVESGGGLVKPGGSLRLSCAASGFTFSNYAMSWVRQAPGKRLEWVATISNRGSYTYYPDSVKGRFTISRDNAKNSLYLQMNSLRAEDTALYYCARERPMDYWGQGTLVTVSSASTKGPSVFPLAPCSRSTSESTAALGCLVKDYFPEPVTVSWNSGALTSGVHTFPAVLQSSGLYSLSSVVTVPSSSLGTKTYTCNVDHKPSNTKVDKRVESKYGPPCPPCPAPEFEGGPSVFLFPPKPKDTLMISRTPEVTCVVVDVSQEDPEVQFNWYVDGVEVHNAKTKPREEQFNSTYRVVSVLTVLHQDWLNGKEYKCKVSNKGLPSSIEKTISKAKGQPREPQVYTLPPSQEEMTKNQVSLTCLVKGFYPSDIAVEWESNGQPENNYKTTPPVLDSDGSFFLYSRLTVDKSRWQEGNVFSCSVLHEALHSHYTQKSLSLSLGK
light: DIQMTQSPSTLSASVGDRVTITCKASQDVGTAVAWYQQKPGKAPKLLIYWASTRHTGVPDRFSGSGSGTDFTLTISSLQAEDFAVYFCHQHSSNPLTFGQGTKLEIKRTVAAPSVFIFPPSDEQLKSGTASVVCLLNNFYPREAKVQWKVDNALQSGNSQESVTEQDSKDSTYSLSSTLTLSKADYEKHKVYACEVTHQGLSSPVTKSFNRGEC
notes: also called VH6/VK7-IgG4v2; VH6/VK7-IgG4v2_HEK
The molecule B2 gave a Kd in test [6] of 1.7 nM.

Usually IC50 stands for the point on the concentration scale where inhibition reaches its midpoint. For orientation: Kd means the concentration at which binding is half-saturated. A lower Kd goes with tighter binding. What is called koff is a measure of how fast the partners let go of each other. A lower koff goes with a long-lived complex. One may read the kon as the second-order rate constant of association. A higher kon goes with faster complex formation.

The values are drawn from patent US20210332115A1 (Sanofi, published 2021).
